Drawing on the supplement of paper PMC10724198, this text covers protein stability index for 116 sequences.

± gives the standard deviation of the averaged measurements.
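Note: PSI is a weighted mean of sequencing reads over stability bins, variants kept only with over 10 reads, mCherry proximal and sfGFP distal, peptide attached via GGGS linker.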

This data set concerns Saccharomyces cerevisiae. The experiment in a line: protein stability index of tFT-peptide fusion (C-terminal peptide) (PSI (0-1 scale)); higher = more stable (slower turnover). The note with it: genetic background: wild type; temperature: 30 C. The procedure: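 Multiplexed protein stability (MPS) profiling in S. cerevisiae. Random 12-aa peptides (tFT-X12 library) are fused to the C-terminus of a sfGFP-mCherry tandem fluorescent timer, after mCherry and a GGGS linker. Cells are FACS-sorted into 8 mCherry/sfGFP bins and deep-sequenced. The protein stability index (PSI) is the read-weighted bin average, scaled from 0 (unstable) to 1 (stable). Only peptides with >10 reads are reported; cells were grown at 30 °C in SC-His with glucose.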
ARCSDPSAATHT had a protein stability index of 0.706 ± 0.038.
Next, AREVGGRAGRRE: 0.661 ± 0.012; ARFFPLPIPPRS: 0.758 ± 0.078; ARGFSAGAIGVG: 0.646 ± 0.1.
Next, ARGGGRSEGGEG: 0.7151 ± 0.0024; ARIGVQRFSGVV: 0.708 ± 0.019.
For ARLHMSLFRPPA, the protein stability index amounted to 0.646 ± 0.011.
ARLSLEGASRGE: the protein stability index was 0.653 ± 0.023.
Take ARMRQNDKHDGS: the protein stability index worked out at 0.662 ± 0.011.
Next, ARPDTSPPGTSL: 0.664 ± 0.044.
Next, ARPFCPLYTPRG: 0.686 ± 0.043; ARQPMHYRITGC: 0.644 ± 0.063.
The sequence ARRYVPPRWGSL registered a protein stability index of 0.679 ± 0.065.
In turn, ARSDRLPNILPY came in with a protein stability index of 0.679 ± 0.071.
For the sequence ARSDSPRATQAN, the protein stability index came to 0.697 ± 0.06.
Sequence ARSFALLGCRRS registered a protein stability index of 0.677 ± 0.042.
On to ARTGRELVLPKG, for which the protein stability index stood at 0.663 ± 0.0089.
Regarding ARWQALTHLIVL, the protein stability index worked out at 0.6151 ± 0.0051.
For the sequence ASCAPGDVTQVG, the protein stability index is 0.718 ± 0.038.
Next, ASCGTAGPCVPF: 0.708 ± 0.019.
ASCHFSILPTRL: the protein stability index came out at 0.67 ± 0.032.
For ASCLNYSSNRRP, the protein stability index is 0.617 ± 0.064.
Take ASCRRGGAGCLR: the protein stability index worked out at 0.735 ± 0.043.
ASFLRPQMSLPF yielded a protein stability index of 0.618 ± 0.0095.
The sequence ASFRPDGYTYSV registered a protein stability index of 0.622 ± 0.071.
ASGAPGRGRGVV: the protein stability index amounted to 0.697 ± 0.083.
Regarding ASGLVVDYTLIA, the protein stability index was 0.671 ± 0.025.
Consider ASGRARVIGVCR, for which the protein stability index was found to be 0.704 ± 0.029.
Turning to ASHDIFWAGSRE, the protein stability index turned out to be 0.766 ± 0.092.
Turning to ASLFFSLCSLSE, the protein stability index was found to be 0.694 ± 0.011.
Regarding ASLPPPFTMLLL, the protein stability index worked out at 0.686 ± 0.051.
The sequence ASLSKLTLKVTV displayed a protein stability index of 0.586 ± 0.057.
Take ASLTPFFLCSIF: the protein stability index was determined as 0.649 ± 0.0073.
In turn, ASPALPAPRSAP yielded a protein stability index of 0.704 ± 0.057.
Next, ASPRLTGCPNPR: 0.6863 ± 0.002; ASRIGHIGQPVI: 0.6889 ± 0.00017; ASRRMGGHNALS: 0.705 ± 0.013.
The sequence ASSPSPPTPPPP yielded a protein stability index of 0.647 ± 0.056.
ASSTSSPPPLPP showed a protein stability index of 0.666 ± 0.032.
Next, ASTLFDCHVLGA: 0.697 ± 0.039.
Next, ASVVEVSSLSLL: 0.629 ± 0.052.
The sequence ATIRNSMPYHFN showed a protein stability index of 0.646 ± 0.044.
Next, ATLGTVTLAFSV: 0.634 ± 0.044.
For the sequence ATLSSVSSGSSF, the protein stability index stood at 0.647 ± 0.12.
For ATNCERLHNPHL, the protein stability index turned out to be 0.727 ± 0.0034.
In the case of ATPTQADRMPVT, the protein stability index was found to be 0.721 ± 0.1.
ATSFHALPVFTS yielded a protein stability index of 0.644 ± 0.053.
In turn, ATSPTSGGIHTA had a protein stability index of 0.662 ± 0.0092.
ATYPVPMPPTPQ: the protein stability index was 0.734 ± 0.037.
AVAFELCDLTRG had a protein stability index of 0.702 ± 0.038.
Next, AVCSLTLGFGWW: 0.755 ± 0.034.
Sequence AVDSGSLERIRM showed a protein stability index of 0.69037 ± 0.00042.
The sequence AVFGLEAVMRRG yielded a protein stability index of 0.753 ± 0.15.
Regarding AVFQEIPFGIPP, the protein stability index came out at 0.696 ± 0.073.
AVGGVFVSSGGL: the protein stability index was found to be 0.691 ± 0.013.
For AVGTAPVFLWFG, the protein stability index stood at 0.679 ± 0.0083.
Turning to AVISDVSLKPNF, the protein stability index amounted to 0.673 ± 0.082.
On to AVISSSFFGSSY, for which the protein stability index was found to be 0.721 ± 0.076.
In the case of AVLPFFPCFSAF, the protein stability index stood at 0.69 ± 0.038.
On to AVLSVGHWGSGL, for which the protein stability index turned out to be 0.69 ± 0.028.
With AVSESSRRTQFF, the protein stability index is 0.7039 ± 0.0025.
The sequence AVSLTLCISSIS registered a protein stability index of 0.5869 ± 0.0052.
AVVRVSLPSTVV returned a protein stability index of 0.667 ± 0.059.
AVYIEFLYPRRL: the protein stability index is 0.644 ± 0.039.
With AWEWMTVQVVRG, the protein stability index turned out to be 0.586 ± 0.012.
On to AWGGGEWGGCGR, for which the protein stability index was 0.772 ± 0.027.
AWGGSWWSLGGM: the protein stability index stood at 0.6715 ± 0.0056.
Consider AWGSVVTFLGLR, for which the protein stability index amounted to 0.737 ± 0.054.
The sequence AWGVCRPGGRGG came in with a protein stability index of 0.681 ± 0.035.
As to AWMSRTRSKNLR, the protein stability index turned out to be 0.717 ± 0.048.
Next, AWPGPKMCWVVK: 0.6294 ± 0.0023.
With AWRVVRIFFCGG, the protein stability index is 0.72 ± 0.15.
Next, AWRWGVGVGSGS: 0.735 ± 0.17; AYRISCAGHIMA: 0.684 ± 0.053; AYRRPKFLEGTF: 0.694 ± 0.1.
AYTSVSVDHLIH: the protein stability index is 0.673 ± 0.0069.
Sequence CAGVGGGLVSLG showed a protein stability index of 0.688 ± 0.082.
Regarding CASSFSFFRFPP, the protein stability index came to 0.586 ± 0.019.
In turn, CAVLGGGGVWGA came in with a protein stability index of 0.596 ± 0.035.
Next, CAVSFPLCLLPP: 0.6439 ± 0.0036; CCARRWLNFEYW: 0.72 ± 0.032; CCGQRYACVFQT: 0.651 ± 0.029.
CCKMITYKEGRE returned a protein stability index of 0.692 ± 0.06.
Take CCLGVFFGVGGL: the protein stability index was determined as 0.772 ± 0.12.
CCLNHIFECLTL: the protein stability index worked out at 0.7012 ± 0.0066.
CCLSCGRPTLGS had a protein stability index of 0.731 ± 0.067.
Next, CCRICCCLLGTH: 0.658 ± 0.032; CDGGCSWGGLMG: 0.795 ± 0.071.
Sequence CDRNLSYGAGSV returned a protein stability index of 0.705 ± 0.049.
Next, CEPPRPGLLPLF: 0.724 ± 0.016; CESRSIVSFVLL: 0.73 ± 0.11; CFFLVLPPFPLF: 0.518 ± 0.028.
Sequence CFGFVRSLGWWG had a protein stability index of 0.6486 ± 0.0027.
With CFMGCAKRVTLI, the protein stability index was found to be 0.561 ± 0.039.
Next, CFRTVPPPALTR: 0.7199 ± 0.002; CGAGGARGSVAR: 0.693 ± 0.026; CGALKGKKPYGV: 0.715 ± 0.057.
On to CGALSVLGWEPF, for which the protein stability index is 0.71615 ± 0.0001.
Next, CGCFLSELATFC: 0.652 ± 0.059.
Next, CGCVSWYYGALD: 0.628 ± 0.0073.
CGEALGVSWMTL displayed a protein stability index of 0.684 ± 0.0038.
Next, CGEWSWAGVGVR: 0.702 ± 0.032; CGFCVCWSGVAL: 0.72 ± 0.045.
Next, CGFFSGLLYFSL: 0.586 ± 0.028.
For the sequence CGGAQRREGGLG, the protein stability index is 0.649 ± 0.03.
Sequence CGLASHLCSGRG displayed a protein stability index of 0.66 ± 0.081.
In turn, CGLRGAGVLCWG yielded a protein stability index of 0.483 ± 0.051.
The sequence CGLRRFTGLAWS gave a protein stability index of 0.6372 ± 0.00093.
With CGLRVAGVLCWG, the protein stability index worked out at 0.465 ± 0.05.
CGPLPLVRSLLP displayed a protein stability index of 0.7031 ± 0.0023.
As to CGRCVRGGRPWG, the protein stability index came to 0.577 ± 0.012.
CGRGVWAVVGVP: the protein stability index amounted to 0.715 ± 0.028.
Turning to CGRSGALGPWGG, the protein stability index was 0.673 ± 0.0053.
The sequence CGSAIGEARDLG gave a protein stability index of 0.621 ± 0.021.
Next, CGSTLLPESYIQ: 0.645 ± 0.052; CGTVVISGIVWR: 0.647 ± 0.04.
